The values below come from US5543264.

The target of test [1] is purified recombinant Ad2 proteinase (rEP) (human adenovirus type 2).
Test [2] deals with (Leu-Arg-Gly-Gly-NH)2-rhodamine.
Test [3] has as its target purified recombinant Ad2 proteinase (rEP) (human adenovirus type 2). The source holds these as a separate data set.

Regarding polyaspartic acid, the stimulation of the rate of substrate hydrolysis by rEP with pVIc peptide in test [1] came to 5 fold. With polyglutamic acid, the stimulation of the rate of substrate hydrolysis by rEP with pVIc peptide in test [1] amounted to 8.9 fold. On the same count and under the same terms, the figure for polylysine is less than 1 fold. “purified recombinant Ad2 proteinase (rEP) (enzyme)” showed a rate of substrate hydrolysis, fluorescence assay (pmol substrate min^-1) in test [2] of 25.6. For GVQSLKRRRCF [Ad2 pVI-c peptide cofactor (11-amino acid carboxy terminus of pVI)], the activation of rEP, rate of hydrolysis of (Leu-Arg-Gly-Gly-NH)2-rhodamine in test [3] worked out at 2.76 pmol/min.
